Source: patent publication US20090280138A1 (OXFORD BIOMEDICA UK, published 2009)

How the values were obtained:
Assay in all cases: iTopia, multiparametric iScore
[1] = target: T1, MHC class I allele A*0301 monomer (human, biotinylated, bound to streptavidin-coated plate)
T1 construct: also called A3; HLA-A3
Method: (§1) The 9 mers were tested for Peptide Binding, Off Rate and Affinity using iTopia Epitope Discovery System in accordance with the manufacturer's instructions. Briefly, 96 well microtitre plates coated with MHC molecules representing different MHC alleles are used to identify candidate peptides. […] Determinations are performed in duplicate using an ELISA plate reader and included allele specific positive controls.
(§2) Finally, multiparametric analysis is performed on the results from these assays and an iScore is generated. The iScore represents a measure of the overall quality of peptide-MHC binding, enabling candidate peptides to be ranked in order of binding quality and allowing rational prioritisation of peptides for functional cellular follow-up studies.

[2] = target: T2, MHC class I allele A*0201 monomer (human, biotinylated, bound to streptavidin-coated plate)
T2 construct: also called A2; HLA-A2
Method: as §1, §2

[3] = target: T3, MHC class I allele A*0101 monomer (human, biotinylated, bound to streptavidin-coated plate)
T3 construct: placeholder peptide and b2M removed, then reconstituted with test peptide and fresh b2M; also called A1; HLA-A1
Method: as §1, §2

[4] = target: T4, MHC class I allele B*0702 monomer (human, biotinylated, bound to streptavidin-coated plate)
T4 construct: also called B7; HLA-B7
Method: as §1, §2

Row | Binder | iScore [1] | iScore [2] | iScore [3] | iScore [4]
1 | EKMRNRVLL [5T4 9-mer peptide 164] | 0 | 0.096 | 0 | 0
2 | VLLELNSAD [5T4 9-mer peptide 167] | 0 | 0.105 | 0 | 0
3 | NRVLLELNS [5T4 9-mer peptide 166] | 0 | 0.031 | 0 | 0
4 | ETEVVQGKD [5T4 9-mer peptide 156] | 0 | 0 | 0 | 0
5 | CAYPEKMRN [5T4 9-mer peptide 162] | 0 | 0 | 0 | 0
6 | LKETEVVQG [5T4 9-mer peptide 155] | 0 | 0 | 0 | 0
7 | LNSADLDCD [5T4 9-mer peptide 169] | 0 | 0 | 0 | 0
8 | LELNSADLD [5T4 9-mer peptide 168] | 0 | 0 | 0 | 0
9 | MRNRVLLEL [5T4 9-mer peptide 165] | 0 | 0 | 0 | 0
10 | VQGKDRLTC [5T4 9-mer peptide 158] | 0 | 0.074 | 0 | 0
11 | PPSLQTSYV [5T4 9-mer peptide 175] | 0 | 0.145 | 0 | 0
12 | DCDPILPPS [5T4 9-mer peptide 172] | 0 | 0 | 0 | 0
13 | QTSYVFLGI [5T4 9-mer peptide 177] | 0 | 0.127 | 0.027 | 0
14 | DRLTCAYPE [5T4 9-mer peptide 160] | 0 | 0 | 0 | 0
15 | SADLDCDPI [5T4 9-mer peptide 170] | 0 | 0 | 0 | 0
16 | DLDCDPILP [5T4 9-mer peptide 171] | 0 | 0 | 0 | 0
17 | DPILPPSLQ [5T4 9-mer peptide 173] | 0 | 0 | 0 | 0
18 | TWLKETEVV [5T4 9-mer peptide 154] | 0 | 0.184 | 0 | 0
19 | EVVQGKDRL [5T4 9-mer peptide 157] | 0 | 0.139 | 0 | 0
20 | GKDRLTCAY [5T4 9-mer peptide 159] | 0 | 0 | 0 | 0
